Our source for the IC50 values is the Immune Epitope Database (IEDB).

Some targets named below: HLA-B*40:02; HLA-B*40:01; HLA-B*07:02; HLA-A*02:01; HLA-B*08:01.
Common to all, as to experiment: IEDB peptide-MHC binding, purified MHC/competitive/radioactivity; ≥ and ≤ were set here for values at or beyond the usual limits of such assays
Common to all, as to conditions: source organism: hepatitis C virus genotype 1a

By IC50 is commonly meant the concentration at which inhibition is half-maximal. Consider LEDRDRSEL, for which the figures for the IC50 with HLA-B*40:02 and in the test with HLA-B*40:01 were 4.27 µM and 426 nM, respectively. For HPALVFDIT, the IC50 with HLA-B*07:02 was 160 nM.

Turning to GVDPNIRTGV, the IC50 in the test with HLA-A*02:01 was found to be 351 nM.

Turning to RLWHYPCTV, the IC50 in the test with HLA-A*02:01 was 12 nM. With RPALVFDIT, the 50% inhibitory concentration (IC50) in the test with HLA-B*07:02 is 43 nM. Still for that read-out and setting: under IPFYGKAI stands 497 nM.

Turning to VLSDFKTWL, the IC50 with HLA-A*02:01 worked out at 305 nM. Still for that read-out and setting: under FLVGQLFTF stands 67 nM. With HSKKKCDEL, the IC50 in the test with HLA-B*08:01 was found to be 764 nM. SLLAPGAKQNV: the IC50 with HLA-A*02:01 is 513 nM.
